According to US20240366624:

Target: wild type STIM1, recombinant, Q13586
Sequence (Q13586 23-213): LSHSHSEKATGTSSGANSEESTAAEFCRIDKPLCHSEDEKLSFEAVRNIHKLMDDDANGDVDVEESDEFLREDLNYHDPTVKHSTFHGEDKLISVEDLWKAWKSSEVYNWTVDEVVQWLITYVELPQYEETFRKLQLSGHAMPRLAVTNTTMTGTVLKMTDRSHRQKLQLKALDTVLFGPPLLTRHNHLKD

B1: recombinant human ERO1α (endoplasmic reticulum oxidoreductase 1α), wild type (protein)
chain: EEQPPETAAQRCFCQVSGYLDDCTCDVETIDRFNNYRLFPRLQKLLESDYFRYYKVNLKRPCPFWNDISQCGRRDCAVKPCQSDEVPDGIKSASYKYSEEANNLIEECEQAERLGAVDESLSEETQKAVLQWTKHDDSSDNFCEADDIQSPEAEYVDLLLNPERYTGYKGPDAWKIWNVIYEENCFKPQTIKRPLNPLASGQGTSEENTFYSWLEGLCVEKRAFYRLISGLHASINVHLSARYLLQETWLEKKWGHNITEFQQRFDGILTEGEGPRRLKNLYFLYLIELRALSKVLPFFERPDFQLFTGNKIQDEENKMLLLEILHEIKSFPLHFDENSFFAGDKKEAHKLKEDFRLHFRNISRIMDCVGCFKCRLWGKLQTQGLGTALKILFSEKLIANMPESGPSYEFHLTRQEIVSLFNAFGRISTSVKELENFRNLLQNIH
- N-ethylmaleimide labeling on the Cys49 residue in STIM1 (mass spectrometry): wtERO1α, but not mERO1α, decreased N-ethylmaleimide labeling on the Cys49 residue in STIM1 in a concentration-dependent manner

B2: activity-null mutant ERO1α-Cys94Ser (protein)
chain: EEQPPETAAQRCFCQVSGYLDDCTCDVETIDRFNNYRLFPRLQKLLESDYFRYYKVNLKRPCPFWNDISQSGRRDCAVKPCQSDEVPDGIKSASYKYSEEANNLIEECEQAERLGAVDESLSEETQKAVLQWTKHDDSSDNFCEADDIQSPEAEYVDLLLNPERYTGYKGPDAWKIWNVIYEENCFKPQTIKRPLNPLASGQGTSEENTFYSWLEGLCVEKRAFYRLISGLHASINVHLSARYLLQETWLEKKWGHNITEFQQRFDGILTEGEGPRRLKNLYFLYLIELRALSKVLPFFERPDFQLFTGNKIQDEENKMLLLEILHEIKSFPLHFDENSFFAGDKKEAHKLKEDFRLHFRNISRIMDCVGCFKCRLWGKLQTQGLGTALKILFSEKLIANMPESGPSYEFHLTRQEIVSLFNAFGRISTSVKELENFRNLLQNIH
- N-ethylmaleimide labeling on the Cys49 residue in STIM1 (mass spectrometry): wtERO1α, but not mERO1α, decreased N-ethylmaleimide labeling on the Cys49 residue in STIM1
